From the supplement of paper PMC12855868

B1: library; numbered along this chain (parent)
chain: MAAAGGARLLRAASAVLGGPAGRWLHHAGSRAGSSGLLRNRGPGGSAEASRSLSVSARARSSSEDKITVHFINRDGETLTTKGKVGDSLLDVVVENNLDIDGFGACEGTLACSTCHLIFEDHIYEKLDAITDEENDMLDLAYGLTDRSRLGCQICLTKSMDNMTVRVPETVADARQSIDVGKTS

Variants of: B1
Assay: scaled log2 fold change in cell abundance, elesclomol vs control (0 = silent mean, 1 = nonsense mean) (scaled log2 ratio); higher = higher viability under elesclomol (loss of FDX1 cuproptosis function)
Settings: glucose 10 mM
Procedure: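 Deep mutational scan of full-length human FDX1: a pooled saturation-mutagenesis ORF library (every residue 2-184 mutated to all 19 amino acids plus stop, and silent codons where available) was expressed by lentivirus in FDX1-knockout ABC1 (14 days) or HEK293T (11 days) cells grown with elesclomol (ES) or DMSO control. Variant abundance came from ORF sequencing. The log2 fold change (ES vs control, mean of duplicates) was centred on the silent-variant mean (0) and scaled to the nonsense-variant mean (1). Higher values mean greater viability under ES, i.e. loss of FDX1 function in cuproptosis.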

[1] = with ABC1 FDX1 KO, elesclomol 5 nM, 14 days
[2] = with HEK293T FDX1 KO, elesclomol 40 nM, 11 days
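Further: variant abundance is its share of total variant reads in each endpoint sample, from next-generation sequencing of the integrated ORF PCR-amplified out of genomic DNA.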

Variant	scaled log2 fold change [1]	scaled log2 fold change [2]
L10G	0.705	
L10T	0.0611	
L10R	0.663	
L10F	-0.0904	-0.0054
L10C	-0.592	0.0724
L10H	0.222	-0.209
L10W	-0.304	0.734
L10K	-0.11	-0.14
L10P	-0.379	
L10V	0.189	-0.208
L10D	0.404	0.0467
L10I	-0.165	0.0157
L10Q	0.168	0.352
L10Y	0.409	0.302
L10E	0.307	-0.18
L10M	0.337	0.282
L10N	0.128	-0.352
L10S	0.48	1.51
S14Q	-0.469	
S14F	-0.657	
S14E	0.366	0.442
S14P	0.707	
S14M	0.348	0.298
S14C	0.43	-0.264
S14D	0.306	

Variant	scaled log2 fold change [1]	scaled log2 fold change [2]
S14H	-0.573	
S14T	-0.472	
S14V	0.113	
S14L	-0.903	0.688
S14A	0.422	0.495
S14W	-0.0995	-0.0707
S14I	-0.891	-0.397
S14G	0.603	
S14Y	0.283	0.523
S14K	-0.193	0.475
S14R	0.602	
G5R	-0.43	-0.244
G5A	-0.65	0.164
G5M	0.245	-0.441
G5N	0.381	0.127
G5Q	0.0157	-0.646
G5K	0.104	0.00379
G5V	0.268	-0.396
G5E	-0.0118	0.75
G5T	-0.0306	0.915
G5I	0.0847	-0.0288
G5W	0.225	0.578
G5S	0.203	-0.121
G5F	0.228	0.695
G5D	0.153	0.63

Variant	scaled log2 fold change [1]	scaled log2 fold change [2]
G5Y	-0.325	0.00599
G5H	0.507	1.08
G5P	0.0147	-0.46
G5L	0.0231	-0.373
R8Y	0.407	0.189
R8E	0.00393	-0.121
R8C	0.116	1.05
R8N	0.424	-0.174
R8M	-0.909	-0.722
R8S	0.0501	-0.479
R8H	0.292	-0.336
R8P	0.109	-0.395
R8L	-0.0928	-0.46
R8F	-0.388	-0.798
R8Q	0.308	-0.248
R8I	0.286	0.291
R8T	-0.656	-0.382
R8W	0.232	0.198
R8K	0.28	-0.152
R8V	0.395	0.881
R8A	0.393	0.0204
R8D	0.629	-0.108
A2P	-0.0191	0.0189
A2F	0.0573	-0.164
A2T	0.0597	-0.252

Variant	scaled log2 fold change [1]	scaled log2 fold change [2]
A2I	-0.127	-0.279
A2L	0.0991	-0.056
A2C	0.441	0.0714
A2N	-0.0435	0.135
A2M	0.0773	0.0994
A2D	0.173	0.487
A2H	0.1	0.132
A2V	0.0325	0.473
A2R	0.187	0.489
A2Y	-0.115	-0.115
A2K	0.0757	-0.0727
A2E	-0.26	0.752
A2Q	-0.344	-0.344
A2S	-0.234	0.215
A2G	0.451	
A2W	-0.098	-0.566
R11H	0.0541	-0.696
R11W	0.0433	0.0594
R11P	0.346	
R11K	0.0892	1.03
R11G	0.36	-0.443
R11C	0.0344	-0.198
R11A	0.289	-0.22
R11N	0.137	0.131
R11Q	0.24	0.0461

Variant	scaled log2 fold change [1]	scaled log2 fold change [2]
R11S	0.406	-0.404
R11F	0.139	-0.474
R11E	-0.0252	-0.275
R11L	0.0826	0.444
R11D	0.509	
R11Y	0.189	0.793
R11V	0.177	-0.49
R11M	-0.24	0.88
R11I	0.175	-0.673
R11T	0.0343	-0.658
L9N	0.353	-0.636
L9D	0.403	-0.529
L9T	0.431	
L9F	-0.0603	0.0924
L9R	0.455	-0.0809
L9I	-0.993	-0.482
L9S	0.156	-0.659
L9K	0.158	
L9C	0.282	-0.0336
L9M	0.105	0.772
L9P	0.629	0.0788
